Source: the nanobody polyreactivity screen of Harvey et al. (2022)

Assay: yeast display, Sf9 membrane polyspecificity reagent, FACS + sequencing; frameworks hold sequencing errors
How it was run: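 Using colony PCR, genes from sorted yeast display clones were amplified, then sequenced on MiSeq at 2 × 250 and filtered by CDR length. The clones had been stained with 10% biotinylated, detergent-solubilized Sf9 membrane reagent for 1 hour at 4 °C and sorted by FACS into low and high (top ~1%) gates on anti-HA and streptavidin fluorescence. Polyreactivity labels come from the gate of origin.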

| Sequence | polyreactivity (PSR sort gate) |
| --- | --- |
| QVQLVESGGGLVQAGGSLRLSSAASGSTIYYYAMGLYRQAPGKEREFVATITQSGGSTYYADSVKGRFTISRDNAKNTVYLQMNSLKPEDTAVYYCAADSWEVDEADIYNSWGQGSQVTVSS | low polyreactivity |
| QVQLVESGGGLVQAGGSLRLSSAASRRIFSEYAMGWNRPEPGKERELVAAISKSGGRTYYADSVKGRFTISRDNAKNTVYFQMNSLKPEETAVDYCNARAVYPAGYAYDYWGQGTQVTVSS | high polyreactivity |
| QVQLVESGGGLVQAGGSLRLSSAATGFTFDKYAMGWYRQAPGKERELVAASSGSGGTTYYADSVKGRFTISRDNAKNTVYLQMNSLKPEDTAVYYCATRLYSIYSYGYWGHGTQVTVSS | high polyreactivity |
| QVQLVESGGGLVQAGGSLRLSSAATGGIFYSNAMGWYRQAPGKERELVAAITRSGTSTYYADSVKGRFTISRDNAKNTVYLQMNSLKPEDTAVYYCAADYRYRRSRGHVSKLYYWGQGTQGTVSS | low polyreactivity |
| QVQLVESGGGLVQAGGSLRLSSAATGSTSFQNAMGWYRQAPGKEREFVAAISGSGDRTNYADSVKGRFTISRDNAKNTVYLQMNSLIPEDTAVYYCAAVRGYPPTNYYYWGQGTQVTVSS | high polyreactivity |
| QVQLVESGGGLVQAGGSLRLSSADSGRIFRGYAMRLYRQAAGKVREFVAAISWGGGSKYYADSEKGRFTISRDNPKNTVYLQMNSLTPEDSAVYYCAAGSPYAYNYWGQGPQVTVSS | high polyreactivity |
| QVQLVESGGGLVQAGGSLRLSSADSGSIFVYYAMGWYRQEPGKESELVATIRSSGARTYYADSVKGRFTISRDNAKNTVYLQINSLKPEDTAVYYCNARYVPYWAYGYGYWGQGTQVTVSS | high polyreactivity |
| QVQLVESGGGLVQAGGSLRLSSAGSGSIFRVYALGWYRQAPGKERELVAVISIAGRTNYADSVKGRFTISRDNAKNTVYLQMNSLKPEDTAVYYCNAGGDGVATGYDYWGQGTQVTVSS | low polyreactivity |
| QVQLVESGGGLVQAGGSLRLSSAGSGSTFIIYAMGWYRQAPGKERELVAAISWSGGSTYYADSVKGRFTISRDNAKNTVYLQMNSLKPEDTEVYYWAVVYRTRWSDYDYWGQGTQVTVSS | low polyreactivity |
| QVQLVESGGGLVQAGGSLRLSSAHSGFIFAHNARGRYRQAPGKERELVAAITSSGGSTYYADSVKGRFRISRDNAKNTVYLQMNSVKPEDTAVYYCNDYTYARRGYDEWGQGTQVTVSS | high polyreactivity |
| QVQLVESGGGLVQAGGSLRLSSAPSGNTFYWYVMGWYRHAPGKERELVARINSSGGTTNYADSVKGRFTISRDNAKNTVYFQMNSLKPEVTAVYYCAADDIYLYGGGTDYYFCGQGTQVTVSS | low polyreactivity |
| QVQLVESGGGLVQAGGSLRLSSASSGSTFPGYTMRWYRPAPGKARELVAYITASDSSTYYADSEKGRFTISRDNAKNTVYLQINSLKPEDTAVYYSAKPPRHTWSFVDYRYEYWGQGTQGTVSS | low polyreactivity |
| QVQLVESGGGLVQAGGSLRLSSPASGRTFGRYTMGWYRQAPGKESELVATISYNGGRTYYADSVKGRFTISRDNAKNTVYLQMNSRKPEDTAVNYCATRLPKSSLHDYWGQGTQVTVSS | high polyreactivity |
| QVQLVESGGGLVQAGGSLRLSSPDSGLIFYLYAMGWYRQSHGKEREFVAAITSGGGSTYYADSVKGRFTISRDNAKNTVYLQINILIPEDTAVFYCAARLVLYITVVYEVDYWGQGTQVTVSS | low polyreactivity |
| QVQLVESGGGLVQAGGSLRLSSSASGRISGRNAMGWYRQAPGKERELVAVITRGDTNYADSVKGRFTISRDNAKNTVYLQMNSLKPEDTAVYYCAKEPLASGWGYDYWGQGTQVTVSS | high polyreactivity |
| QVQLVESGGGLVQAGGSLRLSWAASGFTFKYNAMGLYRQAHGKERELVAAISGSGGRTYYSDSVKGRFTISRDNAKNTVYLQMNSLKPEYTAVYYCAAVYLVTLGARYDYWGQGTQVTVSS | high polyreactivity |
| QVQLVESGGGLVQAGGSLRLSWAASGFTFNRYAMGWYRQAPGKERELVAAISGSGASTYYADSVKGRFTISRDNAKNTVYLQMNSLKPEDTAVYYCATRYSRSYRSRDYYYWGQGTQVTVSS | high polyreactivity |
| QVQLVESGGGLVQAGGSLRLSWAASGFTFSVYAMGWYRQAPGKERELVAAISSGGSTNYADSVKGRFTISRDNAKITVYFQMNSLKPEDTAVYYCADSITVGYSNYYYWGQGSQVTVSS | high polyreactivity |
| QVQLVESGGGLVQAGGSLRLSWAASGGPFSSYDMGWYRQAPGTERELVADITNGGSTNFADSVKGRCTISRDNAKNTVYLQMNSLKPEDTAVYYCATDSYPGLNPDFDYWGHGTQVTVSS | low polyreactivity |
| QVQLVESGGGLVQAGGSLRLSWAASGITFDDYAMGWYRPAPGKERELVAAITWSGDSTYYADSVKGRFTISRDNAKNTVYLQMNSLKPEDTAVYYCAAVSYYWGQGTQVTVSS | high polyreactivity |
| QVQLVESGGGLVQAGGSLRLSWAASGITFRYYAMGWYRHAPGKERELVAAITSGGSTYYADSVKGRFTISRDNAKNTVYLQMNSLKPEDTAVYYCAAKYTLGVSRHPPVKKFYYWGQGTQVTVSS | high polyreactivity |
| QVQLVESGGGLVQAGGSLRLSWAASGITFVRYAMGWYRQAPGKEREFVAAINSIVGRTYYADSVKGRFTISRDNAKNTVYLQMNSLKPEDTAVYYCDADSNVRYGMDYWGQGTQVTVSS | low polyreactivity |

| Sequence | polyreactivity (PSR sort gate) |
| --- | --- |
| QVQLVESGGGLVQAGGSLRLSWAASGNTFYGYAMGWYRQAPGKERELVAGIRWSGGSTSYADSVKGRFTISRDNAKNTVYLQMNSLKTEDTAVYYCAAGWYPWGYYSGYISYEYWGQGTQVTVSS | high polyreactivity |
| QVQLVESGGGLVQAGGSLRLSWAASGRIFGRYTMGWYTQAPGKERELVAAISSAGSTNYADSVKGRFTISRDNAKNTVYLQMNSLKPEDTAVYYCNRAKYVRYSLHYLGYARDYWGQGTQVTVSS | high polyreactivity |
| QVQLVESGGGLVQAGGSLRLSWAASGSIFNTYVMGWYRQAPGKEWELVAAITYSAGGDTYYADSVKGRFTISRDNAKNTVYLQMNSLKPEDTAVYYCAAEYTYLDAYGSYDYWGQGTQVTVSS | low polyreactivity |
| QVQLVESGGGLVQAGGSLRLSWAASGSIFRYNAMGWYRQAPGKERELVAAISSGGGTTYYADSVKGRFTISRDNAKNSVYLQMNSLKPEVTAVYYCNARSYYQRTTYPFRVDYWGQGTQVTVSS | high polyreactivity |
| QVQLVESGGGLVQAGGSLRLSWAASGSTFGFYAMGWYRQAPGKERELVASISSGGTTYHADSVKGRFTISRDNAKNTVYLQMNSLKPEDTAVYYSAAFYVATSKLGYWGQGSQVTVSS | low polyreactivity |
| QVQLVESGGGLVQAGGSLRLSWAASGSTFNSYAMGCYRQAPWKERELVAAITWSGGSTFYADSVKGRVTISRDNAKNTVYLQMNSLKPEDTSVYYCNADGPYYPPYPSTYVDGDSWGQGTQVTVSS | low polyreactivity |
| QVQLVESGGGLVQAGGSLRLSWAASGSTFVVYAMGWYRQAPGKERELVAAIDLSVGDTYYADSVKGRFTISRDNAKNTVFVQMNILKPEDTAVYYCAAEFYSYKYPDYDYWGQGTQVTVSS | low polyreactivity |
| QVQLVESGGGLVQAGGSLRLSWAAYGNIFPHYAMGWYIQAPGKERELVAGITSSGGSTSYADSVKGRFTISRDNAKKTVYLQMNSLKPEDTAVYYCAAPRGQRVRDVYWGQGTQVTVSS | low polyreactivity |
| QVQLVESGGGLVQAGGSLRLSYAASGFIFRYYAMGWYRQAPGKERELVAAIKASGGRTYYADSVKGRFTISRDNERNTVYLQINSLKPEDTAVYYCAASRSYQTFDYWGQGTQVTVSS | high polyreactivity |
| QVQLVESGGGLVQAGGSLRLSYAASGFTFTGYALGWYRQAPGKARELVAAISQSGGSTYADSVKGRFTISRDNAKNTVYLQMNSLKPEDTAVYYCAAVWFLLTEYDYWGQGTQVTVSS | low polyreactivity |
| QVQLVESGGGLVQAGGSLRLTCAASAFTFKLYVMGWYRHATGKERQFDAGITKRGGRTYYADSVKGRFTISRDNAKNTFYLQMNSLKPEDTAVYYCSAGTRIYNSCIRFDYWGQGTQVTVSS | high polyreactivity |
| QVQLVESGGGLVQAGGSLRLTCAASGFIFHRYAMGWYRQAPGKERELVAAITLNGGSTYYADSVKGRFTISRDNAKNTVYLQLNSLKPEDTAVYYCNAGWPWYVGGYYYWGQGTQVTVSS | low polyreactivity |
| QVQLVESGGGLVQAGGSLRLTCAASGFIFSKYAMGSYRQAPGKERELVAAISTSGASTYYADSVKGRFTISRDNAKNTVYLQMNSLKPEDTAVYYCNVPRYSPIRNYDYWGQGTQVTVSS | high polyreactivity |
| QVQLVESGGGLVQAGGSLRLTCAASGFIFVTYAMGWYRQPPGKERELVAAITNSGGTTYYADSVKGRFTISRDNAKNTVYLQMNSLKPEDTAVYYCNIPYGAETAHREFDYWGQGTQVTVSS | low polyreactivity |
| QVQLVESGGGLVQAGGSLRLTCAASGFTFPDKAMGWYRQAPGNERELVAALTTSGGRTYYADSVKGRFTISRDNAKNTVYLQMNRLKPEDTAVYYCARPSRQSHWYYYWGQGTQVTVSS | high polyreactivity |
| QVQLVESGGGLVQAGGSLRLTCAASGIIFRLNAMGWYRQAPGKERELVAAIRRRGGSTYYADSVKGRFTISRDYAKNTVYLQMNSLKPADTAVYYCAKEPDGSDFGYWGQGTQVTESS | low polyreactivity |
| QVQLVESGGGLVQAGGSLRLTCAASGNTFGNYAMGWYRQAPGKERELVASISWNVGSTYYADSVKGRFTISRDNAKNTVYLQMNSLKPEDTAVYYCARGYDRPRVATFHRFDYWGQGTQVTVSS | low polyreactivity |
| QVQLVESGGGLVQAGGSLRLTCAASGRIFAPKAMGWYRQAPGKERELVAGISSGGSTNYADSVKGRFTISRDNAKNTVYLQMNSLTPEDSAVYYCATGSYSYHRGYVTYARYGYWGQGTLVTVSS | low polyreactivity |
| QVQLVESGGGLVQAGGSLRLTCAASGRIFDTYAMVWYRQAPGKEMELVAAISRSGGRTYYADSVKGRFTISRDNANNTVYLQMNSLKPEDTAVYYCAARAYPYYWTGQKQSRFGYWGQGTQVTVSS | high polyreactivity |
| QVQLVESGGGLVQAGGSLRLTCAASGRIFPYYAMGWYRQAPGKEREFVAAITSSGSRTYYADSVKGRFTISRDNAKNNVYLQMNSLKPEDTAVYYCAVAYRLLYYYWGQGTQVTVSS | high polyreactivity |
| QVQLVESGGGLVQAGGSLRLTCAASGRIFQRYAMGWYRQAPGKERELVAGITSSGGSTYYADSVKGRFTISRDNAKNTVYLQMNSLKPEDTAVYYCNAGGELRYYGYRAGGTTRSYDYWGQGTQVTVSS | low polyreactivity |
